{"source": "patent US20210170043A1", "about": "“DC-SIGN ANTIBODY CONJUGATES COMPRISING STING AGONISTS” (NOVARTIS AG, priority 2018, published 2021)", "molecules": {"B1": {"name": "2B2 (DAPA) C1 (conjugate)", "heavy": "QVQLVQSGAEVKKPGASVKVSCKASGYTFTNYGINWVRQAPGQRLEWMGYIYIGNDYTEYNERFKGRVTITSDTSASTAYMELSSLRSEDTAVYYCARLYYGSSLYSYAMDYWGQGTTVTVSSASTKGPSVFPLAPSSKSTSGGTAALGCLVKDYFPCPVTVSWNSGALTSGVHTFPAVLQSSGLYSLSSVVTVPSSSLGTQTYICNVNHKPSNTKVDKRVEPKSCDKTHTCPPCPAPELLGGPSVFLFPPKPKDTLMISRTPEVTCVVVAVSHEDPEVKFNWYVDGVEVHNAKTKPREEQYNSTYRVVSVLTVLHQDWLNGKEYKCKVSNKALAAPIEKTISKAKGQPREPQVYTLPPSREEMTKNQVSLTCLVKGFYPCDIAVEWESNGQPENNYKTTPPVLDSDGSFFLYSKLTVDKSRWQQGNVFSCSVMHEALHNHYTQKSLSLSPGK", "light": "DIVMTQSPLSLPVTPGEPASISCRSSKSLLHSSGNTYLYWFLQKPGQSPQLLISRMSNLASGVPDRFSGSGSGTDFTLKISRVEAEDVGVYYCMQHLEYPYTFGGGTKVEIKRTVAAPSVFIFPPSDEQLKSGTASVVCLLNNFYPREAKVQWKVDNALQSGNSQESVTEQDSKDSTYSLSSTLTLSKADYEKHKVYACEVTHQGLSSPVTKSFNRGEC"}}, "key": {"[1]": {"tested_on": "tumor and splenic immune cells", "assay": "Flow cytometry of spleen and tumor immune cells in tumor-bearing DC-SIGN transgenic mice (PDL1, T cell infiltration and activation)", "type": "in vivo, mouse", "details": "Tg+ mice", "description": "FIGS. 19A-19B show exemplary data on DC-SIGN immunoconjugates inducing upregulation of surface PDL1.\nFIGS. 20A-20F show exemplary data on DC-SIGN immunoconjugates enhancing tumor T cell infiltration and T cell activation."}, "M2 macrophages": {"tested_on": "M2 macrophages", "assay": "Activation of human M2 macrophages (M2 moMacs) in vitro, flow cytometry", "type": "cell-based", "details": "24 hours incubation", "description": "Primary human monocytes were isolated from a leukapheresis using magnetic bead selection and frozen for storage in liquid nitrogen. For monocyte DC (moDC) differentiation, cells were thawed and incubated in media containing GM-CSF and IL-4 for 7 days. For M2 macrophages (M2 moMacs), cells were thawed and incubated for 6 days with M-CSF containing media and then polarized with the addition of IL-4 for 24 hours. After the differentiation process for both moDC and moMacs, media was washed off and replaced with fresh media containing isotype control (DAPA version of Trastuzumab) C1, or DC-SIGN antibody C1 conjugates. Free T1-1 compound was used as a control. 24 hours after incubation with indicated compounds, cells were evaluated by flow cytometry for activation.\nPeripheral blood Leukopaks from normal human donors were obtained from HemaCare. […]\nHuman CD14+ monocytes were isolated and frozen as described. […] Cells were counted and plated at 40,000-80,000 cells per well in a 384 well flat bottom tissue culture plate (Greiner). […]\n24 hours after activation with compounds, cells were evaluated by flow cytometry according to the described protocol using antibody clones described in flow cytometry protocol section. DC-SIGN+CD11c+ HLA-DR+ cells were identified and assessed for CD86 expression and levels of DC-SIGN."}, "[2]": {"tested_on": "transgenic mice expressing human DC-SIGN gene (Tg+)", "assay": "Plasma cytokine and chemokine levels in human DC-SIGN transgenic mice", "type": "in vivo, mouse", "details": "6 hours post dose", "description": "Blood was collected at 6 hours post dose to analyze plasma cytokine and chemokine levels and spleens were analyzed at 24 hours post dose to look at dendritic cell activation.\nMice were bled 6 hours after dosing to collect plasma for analysis of circulating cytokine levels.\nPlasma was collected at indicated timepoints and analyzed with a Mouse IP-10 Platinum ELISA kit (eBioscience Affymetrix). Plasma was diluted 1:100 and the protocol was followed according to the manufacturer's recommendations. Data was collected using an Enspire spectro-photometer using […] as the primary wavelength.\nPlasma was collected at indicated timepoints and analyzed with a Mouse IFN-beta ELISA kit (R&D Systems) according to the manufacturer's recommendations. Data was collected using an Enspire spectro-photometer using […] as the primary wavelength.\nPlasma was collected at indicated timepoints and analyzed with a mouse Proinflammatory Panel 1 (mouse) Kit V-PLEX™ 10 plex from MesoScale Discovery. 25 μL of plasma per sample was used and protocol was followed according to the manufacturer's recommendations. Data were collected and analyzed using a Sector Imager 6000.\nHuman DC-SIGN transgenic mice (Tg+) (Schaefer et al., J. Immunol. (2008) 180 (10) 6836-6845) were bred to Signr1 deficient mice (−/− or KO) (Orr et al., Glycobiology (2013) 23(3): 363-380). Human DC-SIGN expression was checked using PCR to genotype the mice. Human DC-SIGN Tg+ Signr1−/− mice or human DC-SIGN Tg− Signr1−/− mice were tested with compounds as indicated in the above examples."}}, "data": [{"molecule": "B1", "values": [{"measurement": "surface PDL1 on splenic CD11c high dendritic cells", "setting": "[1]; 1 mg/kg", "value": "significant upregulation"}, {"measurement": "surface PDL1 on tumor resident dendritic cells and mMDSCs", "setting": "[1]; 1 mg/kg", "value": "significant upregulation"}, {"measurement": "CD3+ T cells in tumor", "setting": "[1]; 24 and 48 hours post dosing", "value": "Increased"}, {"measurement": "T cell activation as measured by CD69 upregulation on CD4 and CD8 T cells in tumors", "setting": "[1]; 24 hours post dose", "value": "Enhanced T cell activation"}, {"measurement": "CD8+ T cells in tumors", "setting": "[1]; day 7 post dose", "value": "significant increase"}, {"measurement": "FoxP3+ T regulatory cells in tumors", "setting": "[1]; day 7 post dose", "value": "significant decrease"}, {"measurement": "infiltration of CD8 T cells in tumors", "setting": "[1]; in combination with anti-PDL1", "value": "enhanced infiltration of CD8 T cells"}, {"measurement": "downregulation of DC-SIGN on macrophages", "setting": "M2 macrophages", "value": "induced downregulation of DC-SIGN"}, {"measurement": "macrophage activation as measured by CD86 upregulation", "setting": "M2 macrophages", "value": "induced monocyte dendritic cell and macrophage activation"}, {"measurement": "plasma IL-12p70", "setting": "[2]; 1 mg/kg i.v. (Fab2 1.33 mg/kg)", "value": "increased"}, {"measurement": "plasma IP-10", "setting": "[2]; 1 mg/kg i.v. (Fab2 1.33 mg/kg, Fab 1.3 mg/kg)", "value": "increased"}, {"measurement": "plasma TNFα", "setting": "[2]; 1 mg/kg i.v.", "value": "increased"}]}]}
